Values quoted from earlier work as cited in paper PMC6899468.
pKd: −log10 of the molar value.

Biological target: neuropilin-1 (Homo sapiens) (UniProt O14786)
Chain of UniProt O14786 (O14786 22-856): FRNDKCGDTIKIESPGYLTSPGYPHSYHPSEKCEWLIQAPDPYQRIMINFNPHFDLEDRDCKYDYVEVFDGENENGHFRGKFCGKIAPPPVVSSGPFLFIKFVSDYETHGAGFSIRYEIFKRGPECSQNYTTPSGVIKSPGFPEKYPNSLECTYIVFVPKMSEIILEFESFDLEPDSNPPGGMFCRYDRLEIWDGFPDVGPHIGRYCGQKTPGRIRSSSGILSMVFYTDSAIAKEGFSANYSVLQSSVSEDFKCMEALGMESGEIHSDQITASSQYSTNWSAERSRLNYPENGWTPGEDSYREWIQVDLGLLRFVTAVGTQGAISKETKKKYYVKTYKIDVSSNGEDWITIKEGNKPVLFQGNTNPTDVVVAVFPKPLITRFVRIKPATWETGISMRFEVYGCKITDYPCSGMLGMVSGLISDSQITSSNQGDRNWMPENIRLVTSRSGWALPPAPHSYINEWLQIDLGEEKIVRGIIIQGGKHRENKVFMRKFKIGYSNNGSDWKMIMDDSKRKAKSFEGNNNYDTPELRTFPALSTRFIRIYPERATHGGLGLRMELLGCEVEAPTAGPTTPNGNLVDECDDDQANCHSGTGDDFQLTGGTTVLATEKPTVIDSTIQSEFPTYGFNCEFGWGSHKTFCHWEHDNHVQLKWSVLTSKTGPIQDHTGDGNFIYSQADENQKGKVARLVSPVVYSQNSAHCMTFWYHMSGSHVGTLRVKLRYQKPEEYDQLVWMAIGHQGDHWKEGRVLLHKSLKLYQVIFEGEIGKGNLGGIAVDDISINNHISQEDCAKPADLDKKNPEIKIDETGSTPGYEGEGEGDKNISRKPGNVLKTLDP

pKd: 8.46
Substance: chromogranin A fragment hCgA1-373 1-373 (from UniProt P10645)
